# Ends that are not written are not given here. * marks the point of attachment. Biotin = O=C1N[C@H]2[C@H](CS[C@H]2CCCCC(=O)*)N1
# Assays:
# Bax = molecular target: T1, Bax (Homo sapiens, UniProt Q07812); assay: GST-PEM in vitro binding of 35S labeled Bax; conditions: GST fusion, in vitro translated 35S labeled Bax; GST alone as control
# T1 construct: host or cells: coupled transcription/translation in rabbit reticulocyte lysate
# Excerpt: (§1) Complexes were captured with glutathione-agarose beads, washed, and bound proteins detected by polyacrylamide gel electrophoresis and autoradiography. […] Thus, the GD domain can mediate interaction not only with Bcl-xL but also Bak and Bax.
# (§2) Complexes were captured with glutathione-agarose beads, washed, and bound proteins detected by polyacrylamide gel electrophoresis and autoradiography.
# Bak = molecular target: T2, Bak (Homo sapiens, UniProt Q16611); assay: GST-PEM in vitro binding of 35S labeled Bak; conditions: GST fusion, in vitro translated 35S labeled Bak; GST alone as control
# T2 construct: diminished relative to full length Bak; host or cells: coupled transcription/translation in rabbit reticulocyte lysate
# T2 sequence (Q16611 1-211): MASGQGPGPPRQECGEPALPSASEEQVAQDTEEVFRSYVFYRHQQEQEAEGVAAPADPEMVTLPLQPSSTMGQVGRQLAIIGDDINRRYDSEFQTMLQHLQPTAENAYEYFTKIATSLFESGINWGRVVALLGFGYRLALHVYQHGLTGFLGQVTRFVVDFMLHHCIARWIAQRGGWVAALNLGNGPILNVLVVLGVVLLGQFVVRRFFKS
# Excerpt: as §1, §2
# Bcl-xL [1] = molecular target: T3, Bcl-xL (Homo sapiens, UniProt Q07817); assay: GST-PEM in vitro binding of 35S labeled Bcl-xL; set-up: made in house; host or cells: E. coli; conditions: GST fusion, in vitro translated 35S labeled Bcl-xL; GST alone as control
# T3 sequence (Q07817 whole entry, the tested form may be a part): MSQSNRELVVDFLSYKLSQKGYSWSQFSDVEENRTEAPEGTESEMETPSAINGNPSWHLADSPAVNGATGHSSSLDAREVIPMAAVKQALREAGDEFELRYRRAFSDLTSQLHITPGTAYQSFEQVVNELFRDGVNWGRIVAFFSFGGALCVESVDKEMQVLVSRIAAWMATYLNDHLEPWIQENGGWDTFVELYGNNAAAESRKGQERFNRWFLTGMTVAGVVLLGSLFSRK
# Excerpt: as §1, §2
# Bip1a = molecular target: T4, Bip1a (Homo sapiens, UniProt Q13323); assay: GST-PEM in vitro binding of 35S labeled Bip1a; conditions: GST fusion, in vitro translated 35S labeled Bip1a
# T4 construct: host or cells: coupled transcription/translation in rabbit reticulocyte lysate
# T4 sequence (Q13323 1-160): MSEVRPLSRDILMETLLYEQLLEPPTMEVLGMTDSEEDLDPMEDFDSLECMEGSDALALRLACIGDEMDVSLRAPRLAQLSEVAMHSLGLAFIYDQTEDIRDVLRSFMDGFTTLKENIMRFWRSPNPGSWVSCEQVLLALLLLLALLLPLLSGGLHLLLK
# Excerpt: as §1, §2
# GST-Bcl-xL = molecular target: T5, GST-Bcl-xL (Homo sapiens, UniProt Q07817); assay: High through-put screening assay 1: biotinylated GD peptide on GST-Bcl-xL-coated multiwell plates, ELISA; format: binding; conditions: ELISA with streptavidin-conjugated HRP, 4° C. for 1 hour
# T5 construct: made in house; host or cells: E. coli
# T5 sequence (Q07817 whole entry): as the sequence (Q07817 whole entry, the tested form may be a part) above
# Description: Multiwell plates (Nunc Maxisorp) were coated with GST-Bcl-xL and blocked with 1% normal goat serum in PBS. A N-biotinylated GD peptide corresponding to Bak (71-89; […] [SEQ ID NO: 35]) was added and the plates were incubated at 4° C. for 1 hour. The plates were washed to remove unbound GD peptide and the amount of bound peptide was determined by ELISA using streptavidin-conjugated horse radish peroxidase. Coating with GST-Bcl-xL was omitted in the control wells.
# According to the present example, multiwell plates coated with GST-Bcl-xL were incubated with a labeled GD domain peptide probe. […] More specifically, wells in a multiwell plate were coated without (control) or with GST-Bcl-xL and then incubated with a GD domain peptide derived from the Bcl-2 homolog Bak (amino acid residues 71-89; […] [SEQ ID NO: 35]). The peptide was labeled by biotinylation at the amino terminus to allow detection and quantitation of bound peptide using streptavidin-conjugated horse radish peroxidase (HRP) in a standard ELISA procedure. […] Compounds that antagonize GD domain-mediated interactions can be conveniently identified using this assay by adding candidate compounds to the wells during the binding step. Those compounds that disrupt the interaction of the biotinylated GD domain peptide with GST-Bcl-xL will cause a decrease in the ELISA signal.
# [2] = molecular target: T6, Bcl-xL/Bak GD domain interaction (Homo sapiens, UniProt Q07817); assay: High through-put screening assay 2: GST-Bcl-xL binding to biotinylated Bak GD peptide on neutravidin wells, ELISA; conditions: peptide bound to neutravidin-coated wells, ELISA with anti-GST-HRP
# T6 construct: made in house; host or cells: E. coli
# T6 sequence (Q07817 whole entry, the tested form may be a part): as the sequence (Q07817 whole entry, the tested form may be a part) above
# Description: An assay was developed to screen for compounds that block the interaction between the Bcl-2 homologs, Bcl-xL and Bak. A synthetic peptide corresponding to the Bak GD binding domain ([…] [SEQ ID NO: 35]) was biotinylated and bound to wells coated with neutravidin. […] Peptides encompassing the GD domain from various Bcl-2 family members were tested for their ability to block GD domain-mediated interactions in this assay. Peptides tested: Bcl-w [SEQ ID NO: 39] […] ([…]), Bak [SEQ ID NO: 36]([…]), Bak-15 [SEQ ID NO: 37] ([…]), Bak-15L78A [SEQ ID NO: 38] ([…]), control (no peptide).
# In a modification of the high through-put screening assay 1 described herein, wells are coated with an avidin derivative, to which a biotinylated peptide/protein is bound. A GST-fusion protein that can interact with the biotinylated peptide/protein is added in the presence or absence of test compounds. The plates are incubated and then unbound GST-fusion protein is removed by washing. The amount of GST-fusion protein specifically bound to the tethered peptide/protein is determined by ELISA using an anti-GST antibody conjugated to horse radish peroxidase. Compounds which block the interaction between the biotinylated peptide/protein and the GST-fusion protein cause a decrease in the ELISA signal.
# In a specific example, an assay was developed to screen for compounds that block the interaction between the Bcl-2 homologs, Bcl-xL and Bak. A biotinylated Bak GD domain peptide (amino acid residues 71-89; N-biotinylated […] [SEQ ID NO: 35]) was bound to wells coated with neutravidin. […] Using this assay, peptides from Bcl-2 family members were identified which block the Bcl-xL/Bak GD domain interaction (FIG. 10).
# Bcl-xL [3] = molecular target: T3, Bcl-xL; assay: In vitro protein binding assay, 35S labeled protein with GST-Bcl-xL on glutathione-agarose beads; set-up: made in house; host or cells: E. coli; conditions: in vitro translated 35S labeled protein; GST alone as specificity control
# Description: A). Bak/Bcl-xL interactions measured in vitro. ^35S labeled in vitro translated Bak (lane 1) was mixed either with GST-Bcl-xL (lane 2) or GST (lane 3). The complexes were captured on glutathione-agarose beads, and bound ^35S labeled Bak protein was detected by electrophoresis on SDS polyacrylamide gels followed by autoradiography.
# The beads were removed by centrifugation and the supernatants were incubated with GST or GST-Bcl-xL (final concentration […]) at 4° C. for 1 hour. The GST fusion proteins and any interacting proteins were recovered by incubation for 1 hour with an additional […] of GSH-agarose beads. The beads were washed twice with NP-40 lysis buffer followed by two washes with NP-40 lysis buffer without NP-40. Proteins were eluted from the beads by incubation in SDS-PAGE sample buffer at 100° C. for 5 min and loaded onto 4-20% SDS-polyacrylamide gels. Following electrophoresis, gels were fixed and incubated in a fluorography enhancing solution (Amplify; Amersham). The gels were dried and subjected to autoradiography at −70° C.
# Rat-1 cells = assay: Transient transfection cell killing assay (loss of β-galactosidase-positive blue cells); format: cell-based; conditions: Rat-1 cells co-transfected with β-galactosidase marker plasmid, 24 hours post transfection, relative to control vector
# Description: (§3) The transient transfection assay procedure is similar to that previously described for detecting apoptosis induced by IL-1E-converting enzyme (Miura et al., Cell 75: 653-660 (1993); Kumar et al., Genes Dev. 8: 1613-1626 (1994); Wang et al., Cell 78: 739-750 (1994). One day prior to transfection, Rat-1 cells were plated in 24 well dishes at 3.5X10^4 cells/well. The following day, the cells were transfected with a marker plasmid encoding β-galactosidase (0.16 μg), in combination with an expression plasmid encoding Bak (0.42 μg), by the Lipofectamine procedure (Gibco/BRL). At 24 hours post transfection, cells were fixed and stained with X-Gal to detect J-galactosidase expression in cells that received plasmid DNA (Miura et al., supra). The number of blue cells was counted by microscopic examination and scored as either live (flat blue cells) or dead (round blue cells). The cell killing activity of Bak in this assay is manifested by a large reduction in the number of blue cells obtained relative to co-transfection of the β-gal plasmid with a control expression vector (i.e., with no bak cDNA insert).
# The interpretation that loss of blue cells reflects the cell killing function of Bak is supported by a variety of observations: • 1. Rat-1 cells are rapidly killed by enforced Bak expression in stable transfection assays; • 2.
# Enforced bak expression induces apoptosis in stable Rat-1 cell lines transfected with an inducible bak expression plasmid. In order to more rapidly assess the cell killing function of a large number of bak mutants, a transient transfection assay was employed. Rat-1 cells were transfected with a marker plasmid encoding β-galactosidase, in combination with an expression plasmid encoding Bak, or various control plasmids.
# Bcl-xL [4] = molecular target: T3, Bcl-xL; assay: Co-immunoprecipitation of epitope-tagged proteins from transfected COS cells; format: cell-based; conditions: anti-HA immunoprecipitation, western blot
# Description: B). Bak/Bcl-xL interactions detected in transfected cells. Plasmids expressing epitope-tagged forms of Bak and Bcl-xL (HA-Bak and Flag tag-Bcl-xL) were co-transfected into COS cells. HA-Bak was immunoprecipitated (anti-HA IP) from transfected cell lysates and associated Bcl-xL was detected by Western blot analysis with an anti-Flag tag antibody.
# COS cells were grown in Dulbecco's modified Eagle's medium (Life Technologies, Inc.) supplemented with 10% bovine calf serum, 2% L-glutamine and 1% pen/strep (Life Technologies, Inc.). Cells were seeded at 2.0×10^5 cells/35 mm well and transfected with expression plasmids 24 hours later using Lipofectamine as described by the supplier (Life Technologies, Inc.). Bak (and Bak mutants) was expressed as a fusion protein with the HA epitope tag at its amino terminus. Bcl-xL was also expressed with an amino terminal epitope tag (Flag; Kodak). At 24 hours post-transfection, cells were washed with phosphate buffered saline and lysed in NP-40 Lysis buffer also containing 1 mM PMSF, […] pepstatin, and […] leupeptin. The lysates were incubated with anti-HA antibody (12CA5, Boehringer Mannheim) for 1 hour and with […] BSA-washed Protein A-agarose beads (50% slurry) for an additional hour. The beads were washed twice with NP-40 lysis buffer followed by two washes with NP-40 lysis buffer without NP-40. […]
# [5] = tested on: Hela (cervical carcinoma) cells; assay: Transient transfection cell killing assay in Hela cells; format: cell-based, human
# Description: (§4) Cells were fixed and stained with X-gal at 24 hours post-transfection, and the number of blue cells (β-galactosidase-positive) counted by microscopic examination. B. Mouse Embryonic Fibroblasts (MEF) lacking functional p53 (p53^−/−MEF) were co-transfected as described in(A). C. Hela cells, derived from cervical carcinoma, were co-transfected as described in (A). D. BT549 cells, derived from breast carcinoma, were co-transfected as described in (A).
# as §3, with “The cell killing activity of Bak in this assay is manifested by a large reduction in the number of blue cells obtained relative to co-transfection of the β-gal plasmid with a control expression vector (i.e., with no bak cDNA insert).” left out
# (§5) Bak cell killing activity was assessed in several additional cell lines. […]
# [6] = tested on: BT549 (breast carcinoma) cells; assay: Transient transfection cell killing assay in BT549 cells; format: cell-based, human
# Description: as §4
# as §3, with “The cell killing activity of Bak in this assay is manifested by a large reduction in the number of blue cells obtained relative to co-transfection of the β-gal plasmid with a control expression vector (i.e., with no bak cDNA insert).” left out
# as §5
# [7] = tested on: Mouse Embryonic Fibroblasts (MEF) lacking functional p53; assay: Transient transfection cell killing assay in p53-/- fibroblasts; format: cell-based; conditions: p53-/- transformed mouse fibroblasts, co-transfection with β-gal
# Description: as §4
# as §3, with “The cell killing activity of Bak in this assay is manifested by a large reduction in the number of blue cells obtained relative to co-transfection of the β-gal plasmid with a control expression vector (i.e., with no bak cDNA insert).” left out
# as §5
# T1 sequence (Q07812 whole entry, the tested form may be a part): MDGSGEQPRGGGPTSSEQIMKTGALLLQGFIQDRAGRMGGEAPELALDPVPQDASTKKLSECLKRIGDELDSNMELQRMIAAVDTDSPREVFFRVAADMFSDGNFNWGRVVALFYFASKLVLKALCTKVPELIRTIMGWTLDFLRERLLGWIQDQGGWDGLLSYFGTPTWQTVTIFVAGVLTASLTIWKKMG
substance,measurement,setting,value
"GST-PEM: portion of Bak (PEM, residues 58-103) encompassing the GD domain fused to GST, bacterially expressed",interaction with Bax (heterodimerization),Bax,interact specifically
same,interaction with Bak (homodimerization),Bak,interact specifically
same,interaction with Bcl-xL,Bcl-xL [1],interact specifically
same,interaction with Bip1a,Bip1a,does not interact
"MGQVGRQLAIIGDDINRRY (Biotin-MGQVGRQLAIIGDDINRRY) [SEQ ID NO: 35, Bak GD domain peptide, amino acid residues 71-89, biotinylated at the amino terminus]",binding of biotinylated peptide to GST-Bcl-xL-coated wells,GST-Bcl-xL,specifically interacts in a concentration-dependent manner
same,binding of GST-Bcl-xL to the tethered biotinylated peptide,[2],bind specifically
"Bak: Bcl-2 related cell death protein, HA-epitope tagged, expressed from plasmid or in vitro translated",binding to GST-Bcl-xL in vitro,Bcl-xL [3],binds
same,cell killing activity (reduction in number of blue β-gal expressing cells),Rat-1 cells,large reduction in the number of blue (β-gal expressing) cells
same,interaction with Bcl-xL in transfected cells,Bcl-xL [4],specific Bak/Bcl-xL interaction could also be detected
same,cell killing (number of blue cells),[5],can kill human tumor cells
same,cell killing (number of blue cells),[6],can kill human tumor cells
same,cell killing (number of blue cells),[7],greatly reduced the number of blue cells
